According to publication PMC7369618:

Molecular target: pyruvate kinase M2 (PKM2), endogenous in mouse macrophages (mouse (endogenous in BMDMs or Raw 264.7)) (UniProt P52480)
Assay: cross-linking

Sequence of pyruvate kinase M2 (PKM2), endogenous in mouse macrophages, P52480 1-531 (enzyme; other documents disagree on this pair) (P52480 whole entry): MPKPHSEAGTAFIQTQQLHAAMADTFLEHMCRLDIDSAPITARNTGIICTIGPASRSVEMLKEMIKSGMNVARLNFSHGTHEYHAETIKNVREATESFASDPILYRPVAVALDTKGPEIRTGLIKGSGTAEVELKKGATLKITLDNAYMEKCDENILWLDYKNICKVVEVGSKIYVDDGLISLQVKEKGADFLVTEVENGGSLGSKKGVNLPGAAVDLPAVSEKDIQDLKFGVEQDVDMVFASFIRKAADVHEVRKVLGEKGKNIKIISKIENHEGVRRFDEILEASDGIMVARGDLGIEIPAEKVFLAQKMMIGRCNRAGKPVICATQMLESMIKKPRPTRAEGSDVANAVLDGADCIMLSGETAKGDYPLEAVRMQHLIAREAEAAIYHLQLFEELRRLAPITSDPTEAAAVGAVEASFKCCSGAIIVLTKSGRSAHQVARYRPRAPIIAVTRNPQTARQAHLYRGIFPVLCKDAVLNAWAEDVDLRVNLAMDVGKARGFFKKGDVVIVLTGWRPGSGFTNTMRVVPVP

Q: Which stoichiometry N does the source give for “pyruvate kinase M2 (PKM2), endogenous in mouse macrophages, P52480 1-531 (enzyme; other documents disagree on this pair)” here?
A: 4
